According to publication PMC9767379, “Homologous chromosomes are stably conjoined for Drosophila male meiosis I by SUM, a multimerized protein assembly with modules for DNA-binding and for separase-mediated dissociation co-opted from cohesin” (PLOS Genetics, 2022):
Several values for one entry are separate records, joined by “and”; a condition that tells them apart may be missing. Equal values may be shown once.

T1: Strep-II-UNO_C (D. melanogaster, UniProt Q7JQU5 281-417)
T1 construct: source: Hi5 insect cells, baculovirus, co-expressed with MBP-SNM; purified (Strep-Tactin, SEC); not shown: twin Strep-II, N-terminal, kept
T1 sequence (looked up): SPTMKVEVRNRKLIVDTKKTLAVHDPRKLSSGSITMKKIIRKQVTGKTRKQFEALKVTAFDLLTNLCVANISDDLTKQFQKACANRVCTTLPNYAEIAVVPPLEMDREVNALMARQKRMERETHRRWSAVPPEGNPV

B1: Mod(mdg4)_CP (purified) (domain or fragment)
chain: MADDEQFSLCWNNFNTNLSAGFHESLCRGDLVDVSLAAEGQIVKAHRLVLSVCSPFFRKMFTQMPSNTHAIVFLNNVSHSALKDLIQFMYCGEVNVKQDALPAFISTAESLQIKGLTDND
B2: MBP-SNM (natural protein, D. melanogaster, UniProt Q9W0F4 1-973, looked up)
chain: MSDISFDDAVLNDSQASNQMDFEIREECSIAPNDEPVCVDGTVGDATNKSLLQMILSRKRLSPTNKRNSHIESVAKYWGEFYLDSPTAALVALLQFVVEVSGSHYQIPDDTSMPFSYSDILSNSSSHFSNTHIYPLIRKPADVFVNQVGSFLNALLLVANKFRSDSYQLFLVQLTNFVMACSESNIRTFRHTATMIGLKIMTILSDLKSLDDEIAMTVWMQMFNSMFVARSRDIVTDIRLLCISELGQWFARYPHCHLQPTSLRIFYEALNDGSGDVIQCSLDNISVLCRKDVLFSEIVALTSEFREILVELCLGKEDAIAEKSVQFLTHFHVLSAEILTDDVCRVLEQLIMAANRGLAQAAADLFILRRNGLDGETFCQRVKHLLQLFIECGHEQADYLVDSLIDNCELVLDWKSMIAVLLENPKSRELSDIHCSSLIAILLAGVKQATAGEIPPGRYTKDLKREPRQGAQERATKCLAPVLPELLRTYANRLQDIERLLELPKYFCFDYYHEQNRMGQLNELVEHFELIIFDQTSSTTVLQITVKTLEFLNRMIPIPLTKQLLNSAVTNYKMAWHRTQDTSPSRSTHNESNRLLATLRLLTVLSGHFNLSKWDLTEPLLFSLKMLLRQRRLPNGDDLPPEAFSLYLKACFCCLCWDMENLEGTALNNVDMDEYCDVLHHNLEDYLYVTFSLVGKSNTEPLAYPCFSYTCDLFVLHGNLCGSSNPSIRSVAHVPSGNELDILEGFLMEHFLELSPSDLMLETNSDQLQRIRSILTSYLKVVCLGVVPTMRASKFYEYYVKYHAPFGDVMRCSMELALQRNPIHFAMTMLHTCLLLYAKVFPDDTRHAAGQRALRPAEFSELMELANRLAKILISNPMEHRECVIALHRSGILFVFELAQKQPTEATKKLPFLRVLKVFVPLLLVQDKTRILNFFEPYEQLIIPTCNRNDIAHLKEYRNALRPRKTKSYPQAT
notes: SNM (stromalin in meiosis; SA-2), D. melanogaster; source: purified (Strep-Tactin, SEC); not shown: MBP, N-terminal, kept
B3: MBP-UNO_N (domain or fragment, D. melanogaster, UniProt Q7JQU5 1-73, looked up)
chain: MPALTHQILTMQRAPPLNLSFKIQLLSGQNVILVECSGYESELFLPQIVGERITMQNVIQDRRCCAESMLLRD
notes: UNO, D. melanogaster, N-terminal domain aa 1-73; found as a tetramer (SEC peak 1) and as a dimer (SEC peak 2); source: E. coli BL21, purified (amylose/MBP Trap, ion exchange, SEC); not shown: His6, N-terminal, kept; MBP, N-terminal, kept

Legend:
[1] = biological target: the molecule itself; assay: SEC-MALS; purified protein alone, 50 μL at 5–10 μM, 50 mM HEPES pH 7.5, 1 mM TCEP, 300 mM NaCl
Strep-II-UNO_C = biological target: T1, Strep-II-UNO_C; assay: SEC-MALS + other: mass photometry; purified SU_C complex; SEC-MALS in 50 mM HEPES pH 7.5, 1 mM TCEP, 300 mM NaCl, 5–10 μM; mass photometry in 30 mM HEPES pH 7.8, 150 mM NaCl, 3 μM diluted 1:100; conditions: both partners purified

Binder | stoichiometry N [1] | stoichiometry N (Strep-II-UNO_C)
B1 | 6 | 
B2 |  | 1
B3 | 4 and 2 | 
